Source: PMC3509593, “Role of Key Residues at the Flavin Mononucleotide (FMN):Adenylyltransferase Catalytic Site of the Bifunctional Riboflavin Kinase/Flavin Adenine Dinucleotide (FAD) Synthetase from Corynebacterium ammoniagenes” (International Journal of Molecular Sciences, 2012)
Read-outs that look alike come from different tables or passages of the source.

Assays:
[1] = Thermal denaturation by differential scanning calorimetry (DSC); assay type: physicochemical; settings: 20 mM PIPES, 10 mM MgCl2, pH 7.0
Experimental: Thermal stability was determined with a VP-DSC microcalorimeter (MicroCal LLC, Northampton, MA, USA). Protein samples and reference solutions were degassed and carefully loaded into the cells to avoid bubble formation. The baseline of the instrument was routinely recorded before the experiments with both cells filled with buffer. […] Errors in the Tm,app data are within ±0.3–0.5 °C.

CaFADS [2] = settings: 25 °C; for Kd: 20 mM PIPES pH 7.0
Experimental: Measurements were carried out using a high precision VP-ITC (MicroCal LLC, Northampton, MA, USA) following the procedure described previously. Typically, 200 μM FAD or FMN and 300 μM ATP solutions were used to titrate ~20 μM CaFADS. Ligand and CaFADS were dissolved in 20 mM PIPES, pH 7.0, at the indicated MgCl2 concentration. Control titrations were performed by injecting ligand into buffer solution. The association constant, the enthalpy change (ΔH) and the stoichiometry, or their average values, were obtained through non-linear regression of the experimental data to a home derived model for one or two independent binding sites implemented in Origin 7.0 (OriginLab Corporation, Northampton, MA, 2002) (see Supplementary Material). The Kd, the free energy change (ΔG), and the entropy change (ΔS) were obtained from basic thermodynamic relationships. Experiments were performed in duplicate or triplicate.
The association constant (Ka), the enthalpy change (ΔH) and the stoichiometry (N), or their average values, were obtained through non-linear regression of the experimental data to a model for one or two independent binding sites implemented in Origin 7.0 (OriginLab Corporation, Northampton, MA, USA, 2002).
The nominal protein concentration was normalised by a factor n (nP0, instead of P0) accounting for either the stoichiometry or the fraction of active (binding-competent) protein.

CaFADS [3] = settings: FADpp activity; 37 °C, 20 mM PIPES, 10 mM MgCl2, pH 7.0
Experimental: The CaFADS FMNAT and FADpp activities were fluorimetrically measured using a continuous assay. […] Measurements were performed in a Cary Eclipse spectrophotofluorimeter with excitation and emission wavelengths at 420 nm and 530 nm, respectively. FAD and FMN fluorescence were individually calibrated using standard solutions. The rate of FAD formation was calculated from the rate of fluorescence decrease (ΔF/Δt), measured as the tangent to the initial part of the experimental curve by applying the equation:
where ΔF is the decrease in the value of the fluorescence expressed in arbitrary units, Δt is the measurement of reaction time expressed in per minute, and KFMN and KFAD are the FMN and FAD fluorescent rate constants expressed in per micromolar [37]. The kinetic data obtained for one substrate at saturated concentrations of the second one were interpreted using the Michaelis-Menten kinetic model.

CaFADS [4] = molecular target: T1, CaFADS (Corynebacterium ammoniagenes, UniProt Q59263); design: method as in PMID 22892871; settings: FMNAT activity; 37 °C, 20 mM PIPES, 10 mM MgCl2, pH 7.0; cited from earlier work
T1 construct: made in house; host or cells: E. coli (pET28a-CaFADS plasmid)

CaFADS [5] = molecular target: T1, CaFADS; settings: RFK activity, cited from earlier work
[6] = ligand ATP, 10 mM Mg^2+, pH 7.0
[7] = ligand FAD, 10 mM Mg^2+, pH 7.0
[8] = ligand FMN, 10 mM Mg^2+, pH 7.0

B1: WT: wild-type FAD synthetase from Corynebacterium ammoniagenes (CaFADS), over-expressed in E. coli (protein)
chain: MDIWYGTAAVPKDLDNSAVTIGVFDGVHRGHQKLINATVEKAREVGAKAIMVTFDPHPVSVFLPRRAPLGITTLAERFALAESFGIDGVLVIDFTRELSGTSPEKYVEFLLEDTLHASHVVVGANFTFGENAAGTADSLRQICQSRLTVDVIDLLDDEGVRISSTTVREFLSEGDVARANWALGRHFYVTGPVVRGAGRGGKELGFPTANQYFHDTVALPADGVYAGWLTILPTEAPVSGNMEPEVAYAAAISVGTNPTFGDEQRSVESFVLDRDADLYGHDVKVEFVDHVRAMEKFDSVEQLLEVMAKDVQKTRTLLAQDVQAHKMAPETYFLQAES
- Tm,app [1]: 42.5 °C
- ΔG FADS:ATP (CaFADS [2]; ligand ATP, 0 mM Mg^2+, pH 7.0): -7.2 kcal/mol
- ΔH FADS:ATP (CaFADS [2]; ligand ATP, 0 mM Mg^2+, pH 7.0): -31 kcal/mol
- −TΔS FADS:ATP (CaFADS [2]; ligand ATP, 0 mM Mg^2+, pH 7.0): 24 kcal/mol
- ΔG FADS:ATP (CaFADS [2]; [6]): -6.2 kcal/mol
- ΔH FADS:ATP (CaFADS [2]; [6]): -30 kcal/mol
- −TΔS FADS:ATP (CaFADS [2]; [6]): 23 kcal/mol
- ΔG FADS:FAD (CaFADS [2]; [7]): -8.4 kcal/mol
- ΔH FADS:FAD (CaFADS [2]; [7]): -26 kcal/mol
- −TΔS FADS:FAD (CaFADS [2]; [7]): 18 kcal/mol
- ΔG FADS:FMN (CaFADS [2]; [8]): -7.0 kcal/mol
- ΔH FADS:FMN (CaFADS [2]; [8]): -35 kcal/mol
- −TΔS FADS:FMN (CaFADS [2]; [8]): 28 kcal/mol
- Kd (CaFADS [2]; read-out: Kd FADS:ATP (average, Kd,av^ATP:Mg, for two ATP:Mg^2+ binding sites), ligand ATP, 10 mM Mg^2+): 30 µM
- Kd (CaFADS [2]; read-out: Kd FADS:ATP, ligand ATP, 0 mM Mg^2+): 5.5 µM
- Kd (CaFADS [2]; read-out: Kd FADS:FAD, ligand FAD, 10 mM Mg^2+): 0.7 µM
- Kd (CaFADS [2]; read-out: Kd FADS:FMN, ligand FMN, 10 mM Mg^2+): 7.8 µM
- kcat (CaFADS [3]): 0.217 s⁻¹
- kcat (CaFADS [4]): 0.283 s⁻¹
- kcat (apparent) (CaFADS [5]; saturated ATP, varying RF, 37 °C, 0.8 mM MgCl2, pH 7.0): 5.02 s⁻¹
- kcat (apparent) (CaFADS [5]; varying ATP, RF concentration exhibiting ~80% maximal activity): 1.13 s⁻¹
